Source: patent US20040253214A1

Biological target: bovine EGF receptor on MDBK cells (bovine) (UniProt F1N7F3)
Experiment: cell-based or functional assay

EXGaLVMoT chimeric envelope (EGF displayed through a factor Xa-cleavable linker as an N-terminal extension of the Gibbon Ape Leukaemia virus SU glycoprotein), on retroviral vector particles (from UniProt P01133 971-1023; P21415 43-653; P03385 633-665)
Titre of GaLV vectors on EGF-R positive cells, MDBK, +Xa (displayed EGF domain cleaved with factor Xa before infection): 12 efu/ml
Titre of GaLV vectors on EGF-R positive cells, MDBK, -Xa: < 1 efu/ml
